Results published in US20230020729A1 (Memorial Sloan Kettering, published 2023).

Target: T1, human Fc Receptor-Like 5 (FcRL5), full length, expressed on cells (human, UniProt Q96RD9 16-977)
T1 construct: also called CD307e; IRTA2
T1 sequence: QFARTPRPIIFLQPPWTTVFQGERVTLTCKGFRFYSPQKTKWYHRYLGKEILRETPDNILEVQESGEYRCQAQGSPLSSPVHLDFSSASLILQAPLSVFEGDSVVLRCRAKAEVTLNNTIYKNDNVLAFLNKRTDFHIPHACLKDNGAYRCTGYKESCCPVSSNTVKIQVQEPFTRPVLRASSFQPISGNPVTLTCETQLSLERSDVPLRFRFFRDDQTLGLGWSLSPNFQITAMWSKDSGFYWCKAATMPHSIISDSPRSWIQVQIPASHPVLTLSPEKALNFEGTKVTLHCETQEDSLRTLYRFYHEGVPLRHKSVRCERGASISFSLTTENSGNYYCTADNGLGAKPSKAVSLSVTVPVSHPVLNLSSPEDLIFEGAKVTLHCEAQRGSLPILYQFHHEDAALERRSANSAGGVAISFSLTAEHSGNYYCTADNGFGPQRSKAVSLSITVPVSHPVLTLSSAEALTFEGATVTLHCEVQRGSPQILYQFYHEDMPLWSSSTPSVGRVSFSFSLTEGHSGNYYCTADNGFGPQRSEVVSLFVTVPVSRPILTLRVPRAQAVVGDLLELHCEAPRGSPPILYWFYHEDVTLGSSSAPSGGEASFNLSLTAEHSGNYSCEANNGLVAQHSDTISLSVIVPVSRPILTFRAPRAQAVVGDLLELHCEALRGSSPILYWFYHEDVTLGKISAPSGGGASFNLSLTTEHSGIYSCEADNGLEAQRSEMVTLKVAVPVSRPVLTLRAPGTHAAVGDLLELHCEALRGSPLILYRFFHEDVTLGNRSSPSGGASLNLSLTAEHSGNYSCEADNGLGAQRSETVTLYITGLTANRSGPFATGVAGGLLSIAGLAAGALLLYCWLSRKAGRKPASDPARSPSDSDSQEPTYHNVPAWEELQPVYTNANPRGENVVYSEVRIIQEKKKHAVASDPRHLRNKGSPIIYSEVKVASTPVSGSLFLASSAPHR
Test: scFv phage: ELISA on His-tag FcRL5, flow cytometry on FcRL5-overexpressing 3T3 and Raji cells

B1: ET200-011 scFv (scFv)
scFv: QSVVTQPPSVSAAPGQRVTISCSGSSSNISIYDVSWYQQLPGTAPKLLIYGNNKRPSGIADRFSGSTSGTSATLGITGLQTGDEADYYCGTWDDSLSGGVFGGGTKLTVLGSRGGGGSGGGGSGGGGSLEMAQMQLVQSGAEVKKPGSSVKVSCEASGGTLSSYAINWVRQAPGQGLEWMGGIIPMFGTAHYAQKFQGRVTITADESTKTAYMELSSLRSEDTAVYYCARGVHYASFDHWGQGTLVTVSS
notes: VL-linker-VH; screened as scFv phage clone
binding result: binds
